This data set has as its system MS2 coat protein. Kind of data set: apparent KD of MS2 coat protein; designed switch direction (-1 OFF switch, 1 ON switch): 1; higher = weaker reporter binding. An outline of the steps: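 Designed RNA switches sharing common flanks were transcribed on Illumina chips by stalled E. coli RNA polymerase. They were titrated with SNAP-549-labelled MS2 coat protein, from 0.7 or 1.5 nM doubling to 3 µM, in Tris-HCl pH 7.5 buffer with KCl, MgCl2, BSA, DTT, tRNA and Tween-20. Titrations ran without input, with 200 uM small-molecule ligand, or with an oligonucleotide input. The apparent KD of each design is the median over its clusters, after curve-fitting of normalised cluster fluorescence.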

Where [1] appears, read: Eterna round: R95, input ligand: FMN 200 uM.
Setting [2] is: Eterna round: R95, input ligand: microRNA oligo, concentration not stated.
Setting [3] is: Eterna round: R95, input ligand: none.
[4] abbreviates: input ligand: microRNA oligo, concentration not stated.

In the case of “AGUCCAGCAAGAGCUGGACAAAAGCAUGUACAUGAGGAUCACCCAUGUCAUGUACAAGCUUUUUGCUCGUCUUAAAA [Mat - hsa-mir-208a - Mod of JL - D3] (puzzle: Sensor for hsa-mir-208a)”, the “apparent KD of MS2 coat protein” value amounted to 456 nM under setting [1], 16 nM under setting [2] and 729 nM under setting [3].

For “AGUCCAGCCAGAGCUGGACAAAAGCAUGUACAUGAGGAUCACCCAUGUCAUGUACAAGCUUUUUGCUCGUCUUAAUA [Mat - hsa-mir-208a - Mod of JL - D37] (puzzle: Sensor for hsa-mir-208a)”, the “apparent KD of MS2 coat protein” value turned out to be 632 nM under setting [1], 15.4 nM under setting [2] and 621 nM under setting [3].

Take “AGUCCAGCCAGAGCUGGACAAAAGCAUGUACAUGAGGAUCACCCAUGUUCAUGUACAAGCUUUUUGCUCGUCAAAAG [Mat - hsa-mir-208a - Mod of JL - 69] (puzzle: Sensor for hsa-mir-208a)”: the “apparent KD of MS2 coat protein” value was 304 nM under setting [1], 17.7 nM under setting [2] and 233 nM under setting [3].

Turning to “AGUCCAGCCUGAGCUGGACAAAAGCAUGUACAUGAGGAUCACCCAUGUCAUGUACAAGCUUUUUGCUCGAAAUAAUA [Mat - hsa-mir-208a - Mod of JL - D32] (Eterna round: R96, puzzle: Sensor for hsa-mir-208a)”, the “apparent KD of MS2 coat protein” value by setting is: (input ligand: FMN 200 uM) 626 nM; under setting [4], 14.4 nM; (input ligand: none) 561 nM.

For the sequence “AGUCCAGCCUGAGCUGGACAAAAGCAUGUACAUGAGGAUCACCCAUGUCAUGUACAAGCUUUUUGCUCGAAAUAAUA [Mat - hsa-mir-208a - Mod of JL - D32] (puzzle: Sensor for hsa-mir-208a)”, the “apparent KD of MS2 coat protein” value under setting [1] turned out to be 653 nM, the “apparent KD of MS2 coat protein” value under setting [2] is 14.6 nM and the “apparent KD of MS2 coat protein” value under setting [3] is 938 nM.

On to “AGUCCAGCCUGAGCUGGACAAAAGCAUGUACAUGAGGAUCACCCAUGUCAUGUACAAGCUUUUUGCUCGUAAUAAUA [Mat - hsa-mir-208a - Mod of JL - D31] (puzzle: Sensor for hsa-mir-208a)”, for which the “apparent KD of MS2 coat protein” value runs as follows: under setting [1], 301 nM; under setting [2], 12.4 nM; under setting [3], 477 nM.

Regarding “AGUCCAGCCUGAGCUGGACAAAAGCAUGUACAUGAGGAUCACCCAUGUCGUGUACAAGCUUUUUGCUCGUCUUAAUA [Zipper 49 - 4] (puzzle: Sensor for hsa-mir-208a)”, the “apparent KD of MS2 coat protein” value by setting is: under setting [1], 285 nM; under setting [2], 13.5 nM; under setting [3], 311 nM.

Consider “AGUCCAGCCUGAGCUGGACAAAAGCGUGUACAUGAGGAUCACCCAUGUUCAUGUACAAGCUUUUUGCUCGUCUUAAA [Zipper 52 - 6] (puzzle: Sensor for hsa-mir-208a)”, for which the “apparent KD of MS2 coat protein” value was found to be 25.7 nM under setting [1], 20 nM under setting [2] and 127 nM under setting [3].

For the sequence “AGUCCAGCGAAAGCUGGACAGAAGCAUGUACAUGAGGAUCACCCAUGUUCAUGUACAAGCUUUUUGCUCGUCUUAAA [JL mod - D95 - 1] (puzzle: Sensor for hsa-mir-208a)”, the “apparent KD of MS2 coat protein” value is, setting by setting: under setting [1], 476 nM; under setting [2], 14.9 nM; under setting [3], 418 nM.

Take “AGUGGUGGUGCAGGAUAUGCCUCAAAAGCAUGGGUAGAAGGGCAAUACAAAGAAACUCUGACAUGAGGAUCACCCAUGUAGCAA [Eternabot solution 43] (Eterna round: R96, puzzle: Same State NG 1)”: the “apparent KD of MS2 coat protein” value (input ligand: FMN 200 uM) was 449 nM, the “apparent KD of MS2 coat protein” value under setting [4] was found to be 241 nM and the “apparent KD of MS2 coat protein” value (input ligand: none) was determined as 395 nM.

“AGUUGUGGGAAACUAUAGCAGACGCUCGUACAUGAGGAUCACCCAUGUCUUGUAGGAGCUGUUUGCUCGUUUUAUGG [ak 1 mod of one Eli's designs.] (puzzle: Sensor for hsa-mir-208a)”: the “apparent KD of MS2 coat protein” value reads like this: under setting [1], 62.8 nM; under setting [2], 50.1 nM.

On to “AUAAAACAUGAGGAUCACCCAUGUUAACAAAGUCGAGGAUAUGGGCAAAUAAAAUAAGAACCAGAAGGCGAAUAAU [salish99_ss1_r3_045] (puzzle: Same State 1)”, for which the “apparent KD of MS2 coat protein” value reads like this: under setting [1], 16.8 nM; under setting [2], 27.9 nM; under setting [3], 27.7 nM.

In the case of “AUAAAAGAAAGAAACACAUGAGGAUCACCCAUGUAACGACUACAGGAUAUGCUGCACAGUCCAAAGCAGAAGGGUGGUCAAAAC [Qulaesed] (Eterna round: R96, puzzle: Same State NG 3)”, the “apparent KD of MS2 coat protein” value by setting is: (input ligand: FMN 200 uM) 280 nM; under setting [4], 111 nM; (input ligand: none) 102 nM.

Turning to “AUAAACAGGCUAGGAUAUCCGGAAACUACAGGACACGACCCUGUGGACAUGAGGAUCACCCAUGUGGAGAAGGAGCCACAUGAA [Onvete] (Eterna round: R96, puzzle: Same State NG 2)”, the “apparent KD of MS2 coat protein” value by setting is: (input ligand: FMN 200 uM) 31.4 nM; under setting [4], 223 nM; (input ligand: none) 145 nM.

Regarding “AUAAGUUCGAUGCUCGUCUCUCCGUACAAACAUGAGGAUCACCCAUGUGAUUGGACAAAAGCCCAAUCAGUAUGGCC [Cebeince] (puzzle: Sensor for hsa-mir-208a)”, the “apparent KD of MS2 coat protein” value by setting is: under setting [1], 35.9 nM; under setting [2], 21.4 nM; under setting [3], 40.9 nM.

On to “AUAAUACAUGAGGAUCACCCAUGUCAACAAAGUCGAGGAUAUGGGCAAAUAAAAUAAGAACCAGAAGGCGAAUAAU [salish99_ss1_r3_046] (puzzle: Same State 1)”, for which the “apparent KD of MS2 coat protein” value under setting [1] worked out at 34.2 nM, the “apparent KD of MS2 coat protein” value under setting [2] worked out at 359 nM and the “apparent KD of MS2 coat protein” value under setting [3] is 240 nM.

On to “AUACCAUCAGGAGGAUAUGGCACCUUAUUGGUGCCAGAAGGUCUAACAUGAGGAUCACCCAUGUGGGAGUGGUCUAAUGACCAC [Eli NG1ss - 86] (Eterna round: R96, puzzle: Same State NG 1)”, for which the “apparent KD of MS2 coat protein” value was 73.7 nM (input ligand: FMN 200 uM), 72.3 nM under setting [4] and 91 nM (input ligand: none).

Regarding “AUAGUUUCCGAAGGAUAUGAUGAGGAUCACCCAUCAGAAGGUUGGCUAUUGGGCUGACAUGAGGAUCACCCAUGUUUCGGUGUU (Eterna round: R96, puzzle: Same State NG 1)”, the “apparent KD of MS2 coat protein” value by setting is: (input ligand: FMN 200 uM) 33 nM; under setting [4], 29.1 nM; (input ligand: none) 41.4 nM.

As to “AUAUAACAUGAGGAUCACCCAUGUCUCUAAAGUCGAGGAUAUGGGCAGGUUAUAUCCGAACCAGAAGGCGGGUUAU [SS1 Teenbexe 8] (Eterna round: R96, puzzle: Same State 1)”, the “apparent KD of MS2 coat protein” value (input ligand: FMN 200 uM) was 1020 nM, the “apparent KD of MS2 coat protein” value under setting [4] worked out at 287 nM and the “apparent KD of MS2 coat protein” value (input ligand: none) came out at 554 nM.

Take “AUAUAACAUGAGGAUCACCCAUGUCUCUAAAGUCGAGGAUAUGGGCAGGUUAUAUCCGAACCAGAAGGCGGGUUAU [SS1 Teenbexe 8] (puzzle: Same State 1)”: the “apparent KD of MS2 coat protein” value reads like this: under setting [1], 177 nM; under setting [2], 123 nM; under setting [3], 146 nM.

On to “AUAUGAGGAGCAGGAUAUGCGAAGAAGAAAGAAGUAGAAGGGCUCAUGGGACGACAUGAGGAUCACCCAUGUACUUCCCGAUGA [AK SSNG1-V2-7] (Eterna round: R96, puzzle: Same State NG 1)”, for which the “apparent KD of MS2 coat protein” value was found to be 24.6 nM (input ligand: FMN 200 uM), 26.6 nM under setting [4] and 37.7 nM (input ligand: none).

With “AUCCGAACCAUAGGAUAUACUGGCCUCGGGCCAGUAGAAGGGUGGGACAUGAGGAUCACCCAUGUAAAGCACAAUCAGUGCAAA [Ceramace] (Eterna round: R96, puzzle: Same State NG 1)”, the “apparent KD of MS2 coat protein” value was 167 nM (input ligand: FMN 200 uM), 119 nM under setting [4] and 151 nM (input ligand: none).

Turning to “AUGAAGAAUUAAGGAUAUUGAUUACAUAUGUUUAACAUGAGGAUCACCCAUGUGGGUUGCGGUAUCGAGAAGGUAAAUUAAAAG [Mat - same State NG 2 - JL mod - D88] (Eterna round: R96, puzzle: Same State NG 2)”, under setting [4], the “apparent KD of MS2 coat protein” value is 156 nM.

Consider “AUGACAUGCACAGGAUAUUAGGCGCAGUACAGAUAAGAAGGGUGGAUCAGCAUACAUGAGGAUCACCCAUGUUGUUGUAACAUG [Same State 1 S2] (Eterna round: R96, puzzle: Same State NG 1)”, for which, under setting [4], the “apparent KD of MS2 coat protein” value came out at 252 nM.

Take “AUGAUUAAUGCAGGAUAUGAUUAACAUGAGGAUCACCCAUGUGGUGUUGUGAGUAAGGAGAGUGAUCAGAAGGGCAUUUUUUUU [JMF's solution 34] (Eterna round: R96, puzzle: Same State NG 2)”: the “apparent KD of MS2 coat protein” value by setting is: (input ligand: FMN 200 uM) 731 nM; under setting [4], 430 nM; (input ligand: none) 701 nM.

As for “AUUAAACAUGAGGAUCACCCAUGUCAACAAAGUCGAGGAUAUGGGCAUAUUAUCUAAUAACCAGAAGGCGAAUAAU [salish99_ss1_r3_085] (Eterna round: R96, puzzle: Same State 1)”, the “apparent KD of MS2 coat protein” value under setting [4] was determined as 177 nM.

For “AUUAAACAUGAGGAUCACCCAUGUCAACAAAGUCGAGGAUAUGGGCAUAUUAUCUAAUAACCAGAAGGCGAAUAAU [salish99_ss1_r3_085] (puzzle: Same State 1)”, the “apparent KD of MS2 coat protein” value runs as follows: under setting [1], 43.8 nM; under setting [2], 194 nM; under setting [3], 210 nM.

In the case of “AUUACUAGCAUAGGAUAUCAUGCGAAAAUUGCGUGAGAAGGGUGGACGCUGUCAUUCACGGAAGACAUGAGGAUCACCCAUGUC [SameState NG1 #74] (Eterna round: R96, puzzle: Same State NG 1)”, the “apparent KD of MS2 coat protein” value is, setting by setting: (input ligand: FMN 200 uM) 142 nM; under setting [4], 68.5 nM; (input ligand: none) 94 nM.

For the origin of these results see the supplement of paper PMC9170038.
